Laboratory results published in patent US5736294A, “Reagents and methods for modulating gene expression through RNA mimicry” (ISIS Pharmaceuticals, Inc., priority 1991, dated 1998).

Experiments:
[1] = target: T1, HIV-1 Tat 25-mer peptide (tat25) (Human immunodeficiency virus 1, UniProt P69698 SEQ:1-25); assay: EMSA; 1:1 KD; repeated in Table 4; conditions: protein: synthetic, tags: peptide fragment, label: 32P, hairpin, stem-bulge-loop
T1 chain: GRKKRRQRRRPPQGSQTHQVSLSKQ

[2] = target: T2, HIV-1 Tat 37-mer peptide (tat37) (Human immunodeficiency virus 1, UniProt P69698 SEQ:1-37); assay: EMSA; 1:1 KD; 2-3:1 KD 8200 nM; Table 4 gives 60 nM; 4 C; conditions: protein: synthetic; tags: chemically synthesized peptide, RP HPLC purified (UCSF Biotechnology Resource Core); label: 32P; hairpin, stem-bulge-loop
T2 chain: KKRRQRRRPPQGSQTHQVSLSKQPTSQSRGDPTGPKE

[3] = target: T1, HIV-1 Tat 25-mer peptide (tat25); assay: EMSA; 1:1 KD; repeated in Table 4 under tat37 heading; conditions: protein: synthetic, tags: peptide fragment, label: 32P, hairpin, stem-bulge-loop

Binder: GCCAGAUCUGAGCCUGGGAGCUCUCUGGC (ssRNA, 2'-OMe throughout) [2'-OMe deltaTAR #2306 29-mer (16-45 -A17)]
- Kd [1]: 31.6 nM
- Kd [2]: 86.6 nM

Binder: GCCAGAUCUGAGCCUGGGAGCUCUCUGGC (ssRNA) [deltaTAR29 #3153 (16-45 -A17)]
- Kd [3]: 17.3 nM
